Data taken from patent publication US20210130481A1 (INSERM INSTITUT NATIONAL DE LA SANTE ET DE LA RECHERCHE …, published 2021).
Positions count from the first letter of the chain named. One block for each binder: values may come before it.

Legend:
[1] = biological target: T1, human follicle-stimulating hormone receptor (FSHR) (human, UniProt P23945 18-695); assay: FACS on huFSHR L-cells, 4-fold serial dilutions, goat anti-mouse IgG-APC detection
T1 construct: whole, on cells; also called huFSHR; hFSHR
T1 sequence (looked up): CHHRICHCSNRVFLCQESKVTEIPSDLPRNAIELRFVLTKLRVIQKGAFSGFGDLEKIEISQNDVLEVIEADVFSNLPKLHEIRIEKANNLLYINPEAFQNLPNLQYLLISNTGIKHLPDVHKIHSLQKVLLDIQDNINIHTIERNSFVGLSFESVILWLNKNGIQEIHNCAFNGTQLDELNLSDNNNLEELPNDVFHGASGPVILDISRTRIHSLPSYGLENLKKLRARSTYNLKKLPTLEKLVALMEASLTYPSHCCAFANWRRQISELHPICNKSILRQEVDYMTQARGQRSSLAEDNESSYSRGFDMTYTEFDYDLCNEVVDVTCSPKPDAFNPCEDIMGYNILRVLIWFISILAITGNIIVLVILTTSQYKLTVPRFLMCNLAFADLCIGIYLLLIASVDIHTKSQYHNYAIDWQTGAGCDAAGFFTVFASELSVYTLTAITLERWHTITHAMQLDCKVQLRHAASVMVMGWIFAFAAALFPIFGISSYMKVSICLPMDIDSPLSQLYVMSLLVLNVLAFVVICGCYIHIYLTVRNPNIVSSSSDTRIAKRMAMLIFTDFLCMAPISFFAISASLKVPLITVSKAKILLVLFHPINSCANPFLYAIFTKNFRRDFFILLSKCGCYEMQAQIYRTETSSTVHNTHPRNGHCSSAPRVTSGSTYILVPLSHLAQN
Method: (§1) In order to characterize and to check whether the IgGs anti human FSHR retain specificity for huFSHR and whether they bind to this receptor with higher affinity than known antibody, a binding FACS experiment using different IgGs (MABs) concentrations and huFSHR-L-cell and WT L-cells was performed. These cells were QCed for huFSHR expression.
(§2) The HuFSHR L-cells were prepared as previously described [Vannier et al 1996 [15]. Briefly, mouse L cells were co-transfected, using the calcium phosphate precipitate method, with the plasmid encoding the hFSHR (pSG5-hFSHR) and with the plasmid pSV-Neo, a vector which confers resistance to the antibiotic G 418. Neomycin-resistant cells were selected in DMEM supplemented with 10% fetal calf serum and G 418 (geneticin, SIGMA-ALDRICH®) (1 mg/mL). […] The transfected cells were maintained in medium containing G 418 (200 ig/mL) for further studies. The samples were 4-fold serial dilution of monoclonal antibodies and buffer: FACS buffer (1×PBS containing 0.4 g/l human albumin, pH 7.4).
(§3) 100 μl/well of goat anti-mouse IgG conjugated to APC (GAM-APC) (BD™ Bioscience, 1:500 dilution) was added to the cells and incubated for 30 min at 4° C., gently shaking

[2] = biological target: T1, human follicle-stimulating hormone …; assay: immunofluorescence microscopy on fixed FSHR-L-cells
Method: FSHR-L-cells and wild type L-cells were cultured at 37° C. on LabTeck 8-wells (10,000 cells/well) in DMEM containing 10% horse serum, 1 mM glutamine, 1 mM pyruvate in presence of 5% CO₂. When reached 70% confluence, the cells were washed with PBS (three times) and fixed with 4% paraformaldehyde in PBS (15 min at room temperature (RT)). The free aldehyde groups were quenched with 100 mM NH₄Cl in PBS for 15 min at RT (i.e. 20° C.). To block the nonspecific binding of antibodies the cells were incubated 1 hour at RT (i.e. 20° C.) with PBS (pH=7.4) containing 2% goat serum (blocking buffer). FSHR was detected by incubating cells with serial dilutions of the monoclonal primary antibodies 1, 2, 3, 4, and 5 (3 μg/ml−1 μg/ml—0.3 μg/ml−0.1 μg/ml, 0.03 μg/ml, and 0.01 μg/ml of blocking buffer) overnight at 4° C. and with goat anti-mouse IgG-Alexa 555 (Invitrogen #A21137; dilution 1:1000 in blocking buffer) for 1 hour at room temperature. The known FSHR323 antibody (INSERM-Transfert, Paris) was used as a positive IgG2a control (3 μg/ml) as previously described in Radu et al. 2010 [9]. The cell nuclei were detected by incubating cells for 10 min with DAPI (SIGMA-ALDRICH®#32670; dilution 1:1000 in PBS). The slides were mounted in Dako fluorescent mounting medium containing 15 mM sodium azide and examined with an Olympus microscope.

[3] = biological target: T1, human follicle-stimulating hormone …; assay: FACS on huFSHR L-cells; this end is tied to antibody 2 by Table 2 (1.582/0.08678)
Method: as §1, §2, §3

[4] = biological target: T1, human follicle-stimulating hormone …; assay: peroxidase immunohistochemistry on paraffin sections of human testis; this end is tied to antibody 4 by the example in the sentence (0.2 against 5 µg/ml)
Method: Immunohistochemistry: Serial 3-μm-thick sections of human testis tissue (n=30 sections) were cut, attached to SuperFrost slides, deparaffinized with xylene, […] gradually in ethanol and washed with running tap water for 60 min. Access to tissue antigen sites for antibody attachment was enhanced by incubating slides at 90° C. for 40 min with 10 mM citrate buffer, pH 6. After cooling at room temperature (RT) for 20 min, and after each subsequent step, slides were rinsed with PBS. To block endogenous peroxidase activity, the sections were incubated with 6% hydrogen peroxide (15 min at RT, i.e. 20° C.). Sodium borohydride (10 mg/ml PBS) was used to quench free aldehyde groups (15 min, RT i.e. 20° C.). Non-specific binding of antibodies was blocked by incubating slides with 2% goat serum in Phosphate Buffer Saline (PBS) (blocking buffer) at 20° C. (RT) for 2 h. The slides were incubated with serial dilutions of the monoclonal primary antibodies 4, 2, 3 (5 μg/ml−1 μg/ml−0.2 μg/ml−0.04 μg/ml of blocking buffer) in blocking buffer overnight at 4° C. The known FSHR323 antibody (INSERM-Transfert, Paris) was used as a positive IgG2a control. […] The biotinylated goat anti-mouse IgG (Fc-specific) antibody (dilution 1:200), used as secondary antibody, was detected by using streptavidin coupled to horseradish peroxidase (dilution 1:500). […]

[5] = biological target: T1, human follicle-stimulating hormone …; assay: FACS on huFSHR L-cells; this end is tied to antibody 1 by Table 2 (1.582/0.2112)
Method: as §1, §2, §3

B1: mouse IgG2a anti human FSHR antibody 3 (VH CDR1 of SEQ ID NO 3, VH CDR2 of SEQ ID NO 8) (antibody, V domains shown)
VH: QVQLQQSGAELMKPGASVKISCKATGYTFSKQWLLWVKQRPGHGLEWIGEIFPRNGNTNYNEKFKGKATFTADTSSSTAYMQLSSLTSEDSAVYYCARGPTASGYAMDYWGQGTSVTVSS
VL: DVLMTQTPLSLPVSLGDQASISCRSSQSIVHRNGNTYLEWYLQKPGQSPKLLIYKVSNRFSGVPDRFSGSGSGTDFTLKIIRVEAEDLGVYYCFQGSHVPFTFGSGTKLEIK
notes: Mouse IgG2a heavy constant domains and mouse C kappa; also called sample 3; mouse IgG2 FSHR323 variant
EC50 [1]: 0.0893 nM
fold lower labelling concentration than the optimal concentration of FSHR323 [2]: 33 fold

B4: mouse IgG2a anti human FSHR antibody 5 (VH CDR1 of SEQ ID NO 5, VH CDR2 of SEQ ID NO 10) (antibody, V domains shown)
VH: B1 VH with Q32Y, L34T, L35Q, F52Y
VL: B1 VL
notes: Mouse IgG2a heavy constant domains and mouse C kappa; also called sample 5; mouse IgG2 FSHR323 variant
EC50 [1]: 0.101 nM
fold lower labelling concentration than the optimal concentration of FSHR323 [2]: 33 fold

B5: mouse IgG2a anti human FSHR antibody 1 (VH CDR1 of SEQ ID NO 1, VH CDR2 of SEQ ID NO 6) (antibody, V domains shown)
VH: B1 VH with K31Q, Q32F, W33Y, L34V, L35G, N55T
VL: B1 VL
notes: VH was cloned in frame with mouse IgG2a heavy constant domains and the V kappa with mouse C kappa; also called sample 1; mouse IgG2 FSHR323 variant
fold improvement of EC50 against the known antibody [5]: 7.5 fold
EC50 [1]: 0.211 nM
fold lower labelling concentration than the optimal concentration of FSHR323 [2]: 33 fold

Now from value to binder:

EC50 [1]: 0.0868 nM
fold improvement of EC50 against the known antibody [3]: 18.2 fold
fold lower labelling concentration than the optimal concentration of FSHR323 [2]: 33 fold
B2: mouse IgG2a anti human FSHR antibody 2 (VH CDR1 of SEQ ID NO 2, VH CDR2 of SEQ ID NO 7) (antibody, V domains shown)
VH: B1 VH with K31R, L34V, L35I, F52L
VL: B1 VL
notes: Mouse IgG2a heavy constant domains and mouse C kappa; also called sample 2; mouse IgG2 FSHR323 variant

fold higher affinity than FSHR323 (by optimal IHC dilution) [4]: 25 fold
EC50 [1]: 0.098 nM
fold lower labelling concentration than the optimal concentration of FSHR323 [2]: 33 fold
B3: mouse IgG2a anti human FSHR antibody 4 (VH CDR1 of SEQ ID NO 4, VH CDR2 of SEQ ID NO 9) (antibody, V domains shown)
VH: B1 VH with K31R, Q32S, L34I, F52Y, R54Q, G56Q
VL: B1 VL
notes: Mouse IgG2a heavy constant domains and mouse C kappa; also called sample 4; mouse IgG2 FSHR323 variant
